{"source": "patent US20160228520A1", "target": "PR-3 receptor (proteinase 3) on TNF-primed human peripheral blood neutrophils (human) (UniProt P24158)", "sequence (P24158 28-248)": "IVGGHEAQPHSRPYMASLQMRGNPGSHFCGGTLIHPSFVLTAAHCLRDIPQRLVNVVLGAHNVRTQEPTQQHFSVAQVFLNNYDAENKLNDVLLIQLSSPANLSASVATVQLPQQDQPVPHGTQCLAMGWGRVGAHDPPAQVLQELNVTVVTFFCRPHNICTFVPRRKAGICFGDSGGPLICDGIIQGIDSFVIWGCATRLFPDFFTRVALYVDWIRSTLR", "assay": "cell-based or functional assay", "data": [{"substance": "α1-antichymotrypsin (Athens Research & Technology, Cat. No. 16-16-012400) (from UniProt P01011 24-423)", "values": [{"measurement": "% Release of calcein from HUVEC, α-PR3 mAbs added, negative control (0.25 mg/mL α1 antichymotrypsin by the text)", "result": 21.9, "unit": "%"}, {"measurement": "Mean fluorescence, HUVEC assay, α-PR3 mAbs added, negative control", "result": 4420}]}]}
